In this assay the target is GST-tagged NbSAMS2 (GST-NbSAMS2) (N. benthamiana).

Our source for the NbSAMS2 enzymatic activity in vitro (conversion of 35S-Met to 35S-SAM, TLC) after pre-incubation with varying amounts of GST-C4; reduction of activity values is paper PMC6133388.

In the case of GST-C4 (natural protein), the NbSAMS2 enzymatic activity in vitro (conversion of 35S-Met to 35S-SAM, TLC) after pre-incubation with varying amounts of GST-C4; reduction of activity at an 8:1 molar ratio of C4:NbSAMS2 amounted to 80%.
